A short description of this data set: self-splicing fitness, log relative to wild type (ln ratio); higher = more splicing; Tetrahymena group I intron in knt gene, E. coli kanamycin selection, DiMSum; sequences stand for … in CUCUCU…GGAGGGAAAAGUUAUCAGGCAUGCACCUGGUAGCUAGUCUUUAAACCAAUAGAUUGCAUCGGUUUAAAAGGCAAGACCGUCAAAUUGCGGGAAAGGGGUCAACAGCCGUUCAGUACCAAGUCUCAGGGGAAACUUUGAGAUGGCCUUGCAAAGGGUAUGGUAAUAAGCUGACGGACAUGGUCCUAACCACGCAGCCAAGUCCUAAGUCAACAGAUCUUCUGUUGAUAUGGAUGCAGUUCACAGACUAAAUGUCGGUCGGGGAAGAUGUAUUCUUCUCAUAAGAUAUAGUCGGACCUCUCCUUAAUGGGAGCUAGCGGAUGAAGUGAUGCAACACUGGAGCCGCUGGGAACUAAUUUGUAUGCGAAAGUAUAUUGAUUAGUUUUGGAGUACUCGUGGUCG
In short, it runs like this:
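The eight P1ex-region nucleotides of an intron in the knt kanamycin-resistance gene on pET-22b(+) were all randomised and the library put into E. coli BL21(DE3). Six replicate transformations were grown overnight at 37°C or 30°C on LB agar with or without 25 μg/mL kanamycin, together with 100 μg/mL carbenicillin, 50 μM IPTG and 0.2% rhamnose. Colonies were pooled and amplicon-sequenced on an Illumina HiSeq 2500. Fitness from DiMSum is the error-weighted combination of wild-type-normalised replicate fold changes, kanamycin over none.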

The record followed here is the supplement of paper PMC7877785.

± gives the uncertainty stated by the source.

Turning to CCAAAGCAAUAUUACGAGCA, the “self-splicing fitness (ln)” value was -3.64 ± 0.23 (30 °C) and -3.23 ± 0.26 (37 °C).
Consider CCAAAGCAAUAUUACGAGUA, for which the “self-splicing fitness (ln)” value (30 °C) is -3.15 ± 0.23 and the “self-splicing fitness (ln)” value (37 °C) was -2.6 ± 0.23.
On to CCAAAGCAAUAUUACGCAGC, for which the “self-splicing fitness (ln)” value (30 °C) is -3.4 ± 0.26 and the “self-splicing fitness (ln)” value (37 °C) was -2.49 ± 0.33.
Taken in the same sequence, the figures for CCAAAGCAAUAUUACGCAUG were -1.22 ± 0.063 and -0.772 ± 0.084.
In the case of CCAAAGCAAUAUUACGCCAG, the “self-splicing fitness (ln)” value (30 °C) is -1.3 ± 0.1 and the “self-splicing fitness (ln)” value (37 °C) is -0.0837 ± 0.13.
The matching figures for CCAAAGCAAUAUUACGCGCA: -3.48 ± 0.28 and -3.13 ± 0.24.
Consider CCAAAGCAAUAUUACGGCGC, for which the “self-splicing fitness (ln)” value was -3.65 ± 0.34 (30 °C) and -2.49 ± 0.29 (37 °C).
As to CCAAAGCAAUAUUACGGUUC, the “self-splicing fitness (ln)” value was -2.91 ± 0.12 (30 °C) and -2.34 ± 0.2 (37 °C).
CCAAAGCAAUAUUACGUCGC: the “self-splicing fitness (ln)” value (30 °C) is -3.49 ± 0.18 and the “self-splicing fitness (ln)” value (37 °C) is -2.29 ± 0.18.
The matching figures for CCAAAGCAAUAUUACGUCGU: -3.82 ± 0.19 and -2.75 ± 0.23.
Consider CCAAAGCAAUAUUACGUCUG, for which the “self-splicing fitness (ln)” value is -0.9 ± 0.054 (30 °C) and -0.302 ± 0.066 (37 °C).
Taken in the same sequence, the figures for CCAAAGCAAUAUUACGUGCC were -3.77 ± 0.35 and -2.31 ± 0.35.
The matching figures for CCAAAGCAAUAUUACGUGUC: -3.56 ± 0.21 and -3.6 ± 0.29.
Taken in the same sequence, the figures for CCAAAGCAAUAUUACGUUGG were -4.54 ± 0.27 and -3.32 ± 0.29.
For CCAAAGCAAUAUUACGUUUA, the “self-splicing fitness (ln)” value by setting is: (30 °C) -3.26 ± 0.17; (37 °C) -2.63 ± 0.17.
The matching figures for CCAAAGCAAUAUUACGUUUC: -4.24 ± 0.25 and -2.78 ± 0.24.
Turning to CCACAGCAAUAUUACGAAAU, the “self-splicing fitness (ln)” value is, setting by setting: (30 °C) -4.25 ± 0.24; (37 °C) -2.02 ± 0.17.
As to CCACAGCAAUAUUACGACAC, the “self-splicing fitness (ln)” value reads like this: (30 °C) -3.68 ± 0.29; (37 °C) -1.5 ± 0.18.
On to CCACAGCAAUAUUACGACGC, for which the “self-splicing fitness (ln)” value (30 °C) was -3.76 ± 0.33 and the “self-splicing fitness (ln)” value (37 °C) is -2.08 ± 0.35.
Turning to CCACAGCAAUAUUACGAGCG, the “self-splicing fitness (ln)” value by setting is: (30 °C) -0.707 ± 0.048; (37 °C) 0.184 ± 0.065.
The matching figures for CCACAGCAAUAUUACGCGAU: -3.36 ± 0.17 and -3.66 ± 0.21.
Taken in the same sequence, the figures for CCACAGCAAUAUUACGCGUA were -2.81 ± 0.18 and -2.41 ± 0.2.
Taken in the same sequence, the figures for CCACAGCAAUAUUACGCGUU were -3.65 ± 0.092 and -2.91 ± 0.13.
On to CCACAGCAAUAUUACGGCGG, for which the “self-splicing fitness (ln)” value is -3.15 ± 0.14 (30 °C) and -1.08 ± 0.12 (37 °C).
Taken in the same sequence, the figures for CCACAGCAAUAUUACGGGUC were -3.86 ± 0.18 and -2.89 ± 0.17.
Regarding CCACAGCAAUAUUACGGGUG, the “self-splicing fitness (ln)” value by setting is: (30 °C) -2.04 ± 0.05; (37 °C) -0.716 ± 0.059.
Consider CCACAGCAAUAUUACGUAGC, for which the “self-splicing fitness (ln)” value (30 °C) is -4.48 ± 0.29 and the “self-splicing fitness (ln)” value (37 °C) was -2.7 ± 0.26.
On to CCACAGCAAUAUUACGUAUA, for which the “self-splicing fitness (ln)” value runs as follows: (30 °C) -4.05 ± 0.24; (37 °C) -2.84 ± 0.23.
The matching figures for CCACAGCAAUAUUACGUCUU: -3.88 ± 0.14 and -2.85 ± 0.12.
For the sequence CCACAGCAAUAUUACGUGCA, the “self-splicing fitness (ln)” value runs as follows: (30 °C) -4.24 ± 0.24; (37 °C) -2.5 ± 0.12.
The matching figures for CCACAGCAAUAUUACGUGGG: -3.56 ± 0.14 and -3.13 ± 0.18.
On to CCACAGCAAUAUUACGUUAC, for which the “self-splicing fitness (ln)” value reads like this: (30 °C) -3.16 ± 0.21; (37 °C) -2.17 ± 0.17.
As to CCAGAGCAAUAUUACGAACA, the “self-splicing fitness (ln)” value (30 °C) is -2.39 ± 0.47 and the “self-splicing fitness (ln)” value (37 °C) was -1.48 ± 0.49.
As to CCAGAGCAAUAUUACGACAU, the “self-splicing fitness (ln)” value runs as follows: (30 °C) -3.776 ± 0.029; (37 °C) -3.03 ± 0.043.
Turning to CCAGAGCAAUAUUACGACUC, the “self-splicing fitness (ln)” value (30 °C) was -1.93 ± 0.32 and the “self-splicing fitness (ln)” value (37 °C) was -1.12 ± 0.43.
The matching figures for CCAGAGCAAUAUUACGAGGG: -4.31 ± 0.39 and -2.39 ± 0.41.
CCAGAGCAAUAUUACGAUGU: the “self-splicing fitness (ln)” value (30 °C) was -3.69 ± 0.23 and the “self-splicing fitness (ln)” value (37 °C) is -1.83 ± 0.17.
